# B1: GST-CBM (Ash1 Caf1 Binding Motif, 1582–1616) (domain or fragment, fly, UniProt Q9VW15 1582-1616, looked up)
# chain: AKLQPLSEKEKKLVRQFNTFLVRNFEKIRRCKAKR
# notes: Vector pGEX-4T-1; also called Ash1_C1.6; Ash1_CBM
# Key:
# [1] = molecular target: T1, Fly Caf1 wild-type (fly, UniProt Q24572 1-430); assay: pull-down; GST-Ash1 fragments held on GST resin; 200 µL of 0.1 mg/mL purified Caf1 added for 1 h; 150 mM NaCl, 50 mM Tris-HCl (8.0); bound proteins analysed by SDS-PAGE; conditions: both partners purified
# T1 construct: Caf1 (p55/Nurf55), fly; The same paragraph speaks of 'full-length Caf1' for the AMC co-expression; probably full length here too; also called p55; Nurf55; source: Sf9 cells (baculovirus), purified (Ni-NTA, HiTrap Q HP, Superdex 200); not shown: His6, N-terminal, cleaved
# [2] = molecular target: T2, Fly Caf1 H3 binding pocket mutant (E235Q/D252K/E279Q) (fly, UniProt Q24572 1-430, E235Q | D252K | E279Q); assay: as above; conditions: both partners purified
# T2 construct: In the functional row this mutant stood as a subunit of the AMC complex (AMC mut); source: Sf9 cells (baculovirus), purified (Ni-NTA, HiTrap Q HP, Superdex 200); not shown: His6, N-terminal, cleaved
# T2 sequence (Q24572 whole entry E235Q/D252K/E279Q): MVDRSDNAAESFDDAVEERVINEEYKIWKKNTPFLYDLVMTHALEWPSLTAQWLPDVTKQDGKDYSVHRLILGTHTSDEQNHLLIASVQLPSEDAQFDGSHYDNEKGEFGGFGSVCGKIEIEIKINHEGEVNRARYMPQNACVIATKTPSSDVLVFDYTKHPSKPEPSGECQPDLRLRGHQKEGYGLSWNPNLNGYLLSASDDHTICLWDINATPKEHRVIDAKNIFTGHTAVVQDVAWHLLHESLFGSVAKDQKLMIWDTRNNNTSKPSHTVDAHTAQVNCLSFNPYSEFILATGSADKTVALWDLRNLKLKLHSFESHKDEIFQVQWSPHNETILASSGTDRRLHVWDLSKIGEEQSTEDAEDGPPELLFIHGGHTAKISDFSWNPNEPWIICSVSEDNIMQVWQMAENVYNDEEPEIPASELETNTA
# T1 sequence (Q24572 whole entry, the tested form may be a part): as the sequence (Q24572 whole entry E235Q/D252K/E279Q) above, with Q235E, K252D, Q279E counted along it
binder,measurement,setting,value
B1,binding result,[1],binds
same,binding result,[2],binds

# Source: article PMC10148413, “Caf1 regulates the histone methyltransferase activity of Ash1 by sensing unmodified histone H3” (Epigenetics & Chromatin, 2023)
